Results taken from patent US20040157248.

Tests used:
[1] = target: RecA wild-type (Escherichia coli) (UniProt P0A7G6); conditions: ATPase rate without SSB relative to with SSB, 10 mM Mg
[2] = target: RecAΔC17 (Escherichia coli) (UniProt P0A7G6); conditions: ATPase rate without SSB relative to with SSB, 10 mM Mg
[3] = target: RecA E38K/ΔC17 (Escherichia coli) (UniProt P0A7G6); conditions: apparent kcat of ATP hydrolysis with SSB-prebound poly(dT); no lag; higher with SSB than without
[4] = target: RecAΔC17 (Escherichia coli) (UniProt P0A7G6); conditions: salt titration midpoint by DNA-dependent ATPase, no SSB, 37 C; value is NaCl at half-maximal ATPase
[5] = target: RecA wild-type (Escherichia coli) (UniProt P0A7G6); conditions: salt titration midpoint by DNA-dependent ATPase, no SSB, 37 C; value is NaCl at half-maximal ATPase

M13mp8 circular ssDNA
relative ATPase rate [1]: 30%
relative ATPase rate [2]: 84%

poly(dT)
activity [3]: > 20 min⁻¹
K half [4]: 700 mM NaCl
K half [5]: 750 mM NaCl
